Assay results as given in paper PMC9230395.

Molecular target: T1, ZBP1 (recombinant Z-DNA-binding protein) (UniProt Q9H171)
T1 sequence: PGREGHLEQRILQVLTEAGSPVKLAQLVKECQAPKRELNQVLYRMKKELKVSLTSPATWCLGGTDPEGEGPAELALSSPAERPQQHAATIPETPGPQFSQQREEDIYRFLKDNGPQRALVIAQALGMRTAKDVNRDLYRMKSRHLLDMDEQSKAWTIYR
Assay: BLI
Conditions: 10 mM MgCl2; kon 8.28e3 M-1 s-1, koff 4.68e-6 s-1; strands 1 and 2 circular; BLI: 1x PBS (10 mM phosphate) pH 7.2, 10 mM MgCl2, 0.1% BSA, 0.02% Tween-20, 25 C; EMSA: 10 mM phosphate pH 7.2, 10 mM MgCl2, 0.25 uM DNA, 6% PAGE (cc-91A) …

CGTGTGATATAGGTGAACGCGCGTGTGTGTATATGTGTGCGATCGTAGAACTTGTGAACCCTTATACCATGCACGATCGCACATTTCGCACA / GCACACATATACACACACGCGCGTTCACCTATATCACACGTGACTTGTAATTAGTAACTACCAACGTGCGTGTGTGTCAGTCAGCGAAATGTGCGATCGTGCATGGTATAAGGGTTCACAAGTTCTACGATC / TTTTTACCTCACTATACTTACATGTTTTTTGGTAGTTACTAATTACAAGT [Bait-cc-91A (cc-91A + lB50)]
Kd: 0.566 nM
